Where “and” joins values, the source holds several entries; their conditions need not be identical. Equal entries are not always repeated.

The text below walks through data of publication PMC10621011 (ACS Omega, 2023).

Assay [1] concerns the target PD-L1 on H1975 human lung adenocarcinoma cells (human (on H1975 cells), UniProt Q9NZQ7 19-290). Description: ELISA. On the technique in general: ELISA stands for enzyme-linked immunosorbent assay.
In assay [2] the target is Human PD-L1 mouse Fc fusion protein (human, UniProt Q9NZQ7 19-238). Description: ELISA.
Sequence of Human PD-L1 mouse Fc fusion protein (Q9NZQ7 19-238): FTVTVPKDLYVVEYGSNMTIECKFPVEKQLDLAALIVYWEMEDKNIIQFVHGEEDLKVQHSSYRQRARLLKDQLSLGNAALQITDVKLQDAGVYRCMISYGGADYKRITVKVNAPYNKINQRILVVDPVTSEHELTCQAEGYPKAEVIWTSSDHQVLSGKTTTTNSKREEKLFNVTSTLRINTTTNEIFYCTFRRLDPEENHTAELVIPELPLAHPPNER

Sequence of PD-L1 on H1975 human lung adenocarcinoma cells (Q9NZQ7 19-290): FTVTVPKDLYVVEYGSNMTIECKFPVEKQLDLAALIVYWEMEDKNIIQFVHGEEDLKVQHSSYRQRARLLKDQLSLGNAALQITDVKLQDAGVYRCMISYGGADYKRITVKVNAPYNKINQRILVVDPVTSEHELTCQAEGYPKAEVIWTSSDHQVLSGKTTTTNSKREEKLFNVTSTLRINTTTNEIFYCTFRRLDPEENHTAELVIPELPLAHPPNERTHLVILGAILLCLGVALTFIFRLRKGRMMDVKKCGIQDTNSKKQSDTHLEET

B1: mutPD-1Ig (Fc fusion, human, UniProt Q15116 21-161, looked up)
chain: PGWFLDSPDRPWNPPTFSPALLVVTEGDNATFTCSFSNTSESFVLNWYRMSPSNQTDKLAAFPEDRSQPGQDCRFRVTQLPNGRDFHMSVVRARRNDSGTYLCSAISLAPYIQIKESLRAELRVTERRAEVPTAHPSPSPR
One may read the EC50 as the concentration needed to bring the measured effect to its halfway point. Regarding B1, the EC50 in assay [1] was ~0.2 nM and 0.1 nM and 0.13 nM; in assay [2], 0.02 nM.
